Target: T1, human 5T4 oncofoetal glycoprotein (human, UniProt Q13641 32-420)
T1 construct: whole, on cells; also called h5T4; trophoblast glycoprotein
T1 sequence (looked up): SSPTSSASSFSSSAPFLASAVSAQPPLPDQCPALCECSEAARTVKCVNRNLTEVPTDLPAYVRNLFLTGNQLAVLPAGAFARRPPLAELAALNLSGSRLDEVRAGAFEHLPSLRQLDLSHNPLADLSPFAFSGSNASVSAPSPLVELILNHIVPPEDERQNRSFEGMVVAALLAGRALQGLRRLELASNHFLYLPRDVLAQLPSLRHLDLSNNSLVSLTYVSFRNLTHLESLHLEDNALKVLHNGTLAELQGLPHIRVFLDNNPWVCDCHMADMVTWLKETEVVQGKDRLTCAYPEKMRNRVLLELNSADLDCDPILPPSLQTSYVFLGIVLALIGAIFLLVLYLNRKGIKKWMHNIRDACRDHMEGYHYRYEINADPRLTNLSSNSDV
Experiment: summary of the pull down and Western blot experiments
Protocol: Denistometric scans of western blots between approximately 60-140 kDa (5T4 probe) and 30-140 kDa (CXCR4 probe). […] Under reducing conditions, the epitope recognized by 5T4 antibodies is destroyed but CXCR4 at 46 kD is detectable on the reduced gels of the 5T4 pulldown, (not shown). Thus, specific pull downs but not the controls, probed with either anti-CXCR4 or anti-5T4 detected molecules migrating ≈130 kDa in all the tumor lines.
Western blots were carried out using a BioRad Mini-PROTEAN Tetra (Thermo Fisher) supplemented with protease and phosphatase inhibitor cocktails (Thermo Fisher). RIPA buffer (50 mM Tris-Cl pH 7.4, 150 mM NaCl, 1% NP40, 0.25% Na-deoxycholate, 1 mM PMSF and protease and phosphatase inhibitor cocktail) was used as an alternative method of cell lysis. The compound PD98059 (Thermo Fisher) was applied to cells to inhibit MEK1 at 100 μM for 1 h prior to CXCL12 stimulation. Other primary antibodies used were ERK1/2, phospho-ERK1/2 (Thr202/Tyr204/Thr185/Tyr187), AKT and phospho-AKT (Thr308) (Cell Signalling Technology) at 1:1000. Following secondary antibody labelling using appropriate HRP conjugates (AbSerotec) hybridizing bands were detected using SuperSignal West Dura (Thermo Fischer). […]

binding result: binds
B1: human CXCR4 (receptor, UniProt P61073 1-352, looked up)
chain: MEGISIYTSDNYTEEMGSGDYDSMKEPCFREENANFNKIFLPTIYSIIFLTGIVGNGLVILVMGYQKKLRSMTDKYRLHLSVADLLFVITLPFWAVDAVANWYFGNFLCKAVHVIYTVNLYSSVLILAFISLDRYLAIVHATNSQRPRKLLAEKVVYVGVWIPALLLTIPDFIFANVSEADDRYICDRFYPNDLWVVVFQFQHIMVGLILPGIVILSCYCIIISKLSHSKGHQKRKALKTTVILILAFFACWLPYYIGISIDSFILLEIIKQGCEFENTVHKWISITEALAFFHCCLNPILYAFLGAKFKTSAQHALTSVSRGSSLKILSKGKRGGHSSVSTESESSSFHSS
notes: whole, on cells; Endogenous CXCR4 of human tumour cell lines, tested as unreduced solubilised membrane fractions (Western blot, pull down); also called chemokine (C-X-C motif) receptor 4

Reference: patent US20120282183A1 (CANCER RESEARCH TECHNOLOGY, published 2012)
